This assay has as its target T1, 6xHis-hERG1a N1–354-FLAG (human, UniProt Q12809 1-354).
T1 construct: Plasmid made commercially (BioInnovatise); also called hERG1a N-terminal region; source: bacteria, M15 cells, purified (nickel column); not shown: His6, N-terminal, kept; FLAG, C-terminal, kept
The assay can be described thus: pull-down; GST or GST fusion protein bound to glutathione beads, incubated with 6xHis fusion protein in buffer S (50 mM Tris pH 8, 150 mM NaCl, 25 mM imidazole, 0.25% Tween-20) with 0.5% CHAPS, overnight at 4 °C; washed; Western blot with anti-FLAG. The note with it: both partners purified. For orientation: In western blotting, separated proteins are transferred to a membrane and probed.

T1 sequence (Q12809 1-354): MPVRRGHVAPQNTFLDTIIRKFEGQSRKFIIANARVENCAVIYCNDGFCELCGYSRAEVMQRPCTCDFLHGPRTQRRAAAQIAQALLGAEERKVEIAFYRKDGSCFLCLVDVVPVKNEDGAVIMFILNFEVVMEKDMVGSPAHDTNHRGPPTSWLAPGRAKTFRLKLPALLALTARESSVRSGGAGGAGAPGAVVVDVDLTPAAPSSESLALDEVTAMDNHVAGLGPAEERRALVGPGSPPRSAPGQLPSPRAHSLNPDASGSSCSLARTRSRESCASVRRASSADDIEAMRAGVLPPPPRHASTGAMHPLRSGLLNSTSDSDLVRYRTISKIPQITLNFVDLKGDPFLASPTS

B1: GST-hERG1b N1–56 (domain or fragment, human, UniProt Q12809-2 1-56, looked up)
chain: MAAPAGKASRTGALRPRAQKGRVRRAVRISSLVAQEVLSLGADVLPEYKLQAPRIH
notes: hERG1b (KCNH2 isoform 1b), human, N-terminal region residues 1-56; numbers count on: hERG1b; Plasmid made commercially (BioInnovatise); also called hERG1b N-terminal region; GST–hERG1b N-terminal region; not shown: GST, N-terminal, kept
B1: the binding result is given as “binds”.

(Values after article PMC9428852, “The N-linker region of hERG1a upregulates hERG1b potassium channels” (The Journal of Biological Chemistry, 2022).)
